Legend:
OxiSelect ROS/RNS assay = conditions: glycan lost; control: PON1-WT
[1] = SRB drug sensitivity assay; conditions: glycan lost; control: PON1-WT
[2] = ELISA of secretome PON1, H1993-GR; conditions: glycan lost; control: PON1-WT
[3] = sandwich ELISA of IL-6, TNF-α, GM-CSF; conditions: glycan lost; control: PON1-WT
[4] = intracellular paraoxonase activity, H1993-GR; conditions: glycan lost; control: PON1-WT
[5] = intracellular arylesterase activity, H1993-GR; conditions: glycan lost; control: PON1-WT
[6] = CHX chase, immunoblot, PON1 remaining, H1993-GR; conditions: glycan lost; control: PON1-WT
[7] = ATF6 ELISA of Golgi/ER fraction, immunofluorescence; conditions: glycan lost; control: PON1-WT
[8] = trypsin sensitivity, PON1 ELISA, A549 Golgi/ER fraction; conditions: glycan lost; control: PON1-WT
[9] = trypsin sensitivity, PON1 ELISA, H1993-GR Golgi/ER fraction; conditions: glycan lost; control: PON1-WT
[10] = trypsin sensitivity, PON1 ELISA, PON1-overexpressing cells Golgi/ER; conditions: glycan lost; control: PON1-WT
[11] = ELISA of secretome PON1, PNGase F in culture; conditions: glycan lost; control: untreated
[12] = paraoxonase activity, H1993-GR Golgi/ER fraction; conditions: glycan changed form; control: siControl

B1: paraoxonase 1 (PON1): N253G (protein)
parent chain: MAKLIALTLLGMGLALFRNHQSSYQTRLNALREVQPVELPNCNLVKGIETGSEDLEILPNGLAFISSGLKYPGIKSFNPNSPGKILLMDLNEEDPTVLELGITGSKFDVSSFNPHGISTFTDEDNAMYLLVVNHPDAKSTVELFKFQEEEKSLLHLKTIRHKLLPNLNDIVAVGPEHFYGTNDHYFLDPYLQSWEMYLGLAWSYVVYYSPSEVRVVAEGFDFANGINISPDGKYVYIAELLAHKIHVYEKHANWTLTPLKSLDFNTLVDNISVDPETGDLWVGCHPNGMKIFFYDSENPPASEVLRIQNILTEEPKVTQVYAENGTVLQGSTVASVYKGKLLIGTVFHKALYCEL
**Q.** With B1 as the protein, how does the “other: ROS/RNS in admixture secretome” value (OxiSelect ROS/RNS assay) read?
**A.** increases

**Q.** What about the “other: EGFR-TKI resistance of GR and ER clones” value [1] of the same protein?
**A.** decreases

**Q.** What about the expression_or_secretion [2] of the same protein?
**A.** decreases

**Q.** And the “other: secretome cytokine levels” value [3]?
**A.** increases

**Q.** And the enzymatic_activity [4]?
**A.** no change

**Q.** And the enzymatic_activity [5]?
**A.** decreases

**Q.** What about the degradation_or_half_life [6] of the same protein?
**A.** decreases

**Q.** And the “other: ATF6 level in co-cultured DR clones” value [7]?
**A.** increases

**Q.** And the stability_or_folding [8]?
**A.** no change

**Q.** And the stability_or_folding [9]?
**A.** decreases

**Q.** And the stability_or_folding [10]?
**A.** decreases

B2: paraoxonase 1 (PON1): PNGase F (protein)
parent chain: MAKLIALTLLGMGLALFRNHQSSYQTRLNALREVQPVELPNCNLVKGIETGSEDLEILPNGLAFISSGLKYPGIKSFNPNSPGKILLMDLNEEDPTVLELGITGSKFDVSSFNPHGISTFTDEDNAMYLLVVNHPDAKSTVELFKFQEEEKSLLHLKTIRHKLLPNLNDIVAVGPEHFYGTNDHYFLDPYLQSWEMYLGLAWSYVVYYSPSEVRVVAEGFDFANGINISPDGKYVYIAELLAHKIHVYEKHANWTLTPLKSLDFNTLVDNISVDPETGDLWVGCHPNGMKIFFYDSENPPASEVLRIQNILTEEPKVTQVYAENGTVLQGSTVASVYKGKLLIGTVFHKALYCEL
**Q.** With B2 as the protein, how does the expression_or_secretion [11] read?
**A.** no change

B3: paraoxonase 1 (PON1): N324G (protein)
parent chain: MAKLIALTLLGMGLALFRNHQSSYQTRLNALREVQPVELPNCNLVKGIETGSEDLEILPNGLAFISSGLKYPGIKSFNPNSPGKILLMDLNEEDPTVLELGITGSKFDVSSFNPHGISTFTDEDNAMYLLVVNHPDAKSTVELFKFQEEEKSLLHLKTIRHKLLPNLNDIVAVGPEHFYGTNDHYFLDPYLQSWEMYLGLAWSYVVYYSPSEVRVVAEGFDFANGINISPDGKYVYIAELLAHKIHVYEKHANWTLTPLKSLDFNTLVDNISVDPETGDLWVGCHPNGMKIFFYDSENPPASEVLRIQNILTEEPKVTQVYAENGTVLQGSTVASVYKGKLLIGTVFHKALYCEL
**Q.** With B3 as the protein, how does the “other: EGFR-TKI resistance of GR and ER clones” value [1] read?
**A.** decreases

**Q.** And the expression_or_secretion [2]?
**A.** decreases

**Q.** What about the stability_or_folding [9] of the same protein?
**A.** decreases

B4: paraoxonase 1 (PON1): SLC35C1 RNAi (protein)
parent chain: MAKLIALTLLGMGLALFRNHQSSYQTRLNALREVQPVELPNCNLVKGIETGSEDLEILPNGLAFISSGLKYPGIKSFNPNSPGKILLMDLNEEDPTVLELGITGSKFDVSSFNPHGISTFTDEDNAMYLLVVNHPDAKSTVELFKFQEEEKSLLHLKTIRHKLLPNLNDIVAVGPEHFYGTNDHYFLDPYLQSWEMYLGLAWSYVVYYSPSEVRVVAEGFDFANGINISPDGKYVYIAELLAHKIHVYEKHANWTLTPLKSLDFNTLVDNISVDPETGDLWVGCHPNGMKIFFYDSENPPASEVLRIQNILTEEPKVTQVYAENGTVLQGSTVASVYKGKLLIGTVFHKALYCEL
**Q.** Which enzymatic_activity [12] does the source give for B4 here?
**A.** no change

From paper PMC10089660
